Data published in the RNAGym collection of RNA variant scans (doi:10.1073/pnas.2313332121).

B1: TPR t1 (parent)
chain: GACCAAUCUGCCCUCAGAGCUCGAGAACAUCUUCGGAUGCAGAGGAGGCAGGCUUCGGUGGCGCGAUAGCGCCAACGUCCUCAACCUCCAAUGCAUCCCACCACAUGAUGAUGCCUGAAGAGCCUUGGUUUUUUG

Variants of: B1
Assay: polymerase ribozyme fitness, log enrichment relative to wild type (log ratio); higher = more active; in vitro selection for triplet polymerase activity
How it was run: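 After PCR construction and transcription, each subunit's mutant library from a heterodimeric triplet polymerase ribozyme was annealed with a biotinylated primer, the partner subunit and triplets. Incubation was frozen, at −7 °C, and extended constructs were gel-excised, bound to streptavidin beads and amplified by RT-PCR, in one selection round done in triplicate. Fitness is the logarithm of a genotype's enrichment divided by that of the wild type, from inverse-variance-weighted replicate averages of Illumina-sequenced inputs and outputs. The base of the logarithm is 2, and genotypes needed ≥10 input reads and ≥1 read per output.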

Variant | polymerase ribozyme fitness (log ratio)
G69C U96A | -2.44
G63U C123U | -0.374
G69U A103C | -1.85
C64A C70G A95U G110C C114U | -5.6
G63A U125A | -1.21
G63A G93U G110A | -4.5
G63C U78G C98U | -2.14
G63A C104A U132A G135U | -3.28
G63A U112A U125A | -1.17
G69U U81C | 0.131
G69U G71U | -0.811
G63C C104U | -0.59
A66C U87G A118U U132A | -0.678
G69C C88U | -1.17
G63U C97U C98U G113A A118G U134G | -3.87
A68G C114A | -3.39
G69C A90C A91G A108C U112A | -6.22
G65C C114G | -6.28
C64A C89A G117C G135U | -5.9
G65A U87G | -5.9
G69U G71A A75U A103U C124G | -3.98

Variant | polymerase ribozyme fitness (log ratio)
G63U C79G | -3.17
G69C C115A | -0.724
G69C C115U | -1.75
G69C U92A | -5.61
G63A G120U | -0.702
G63A C102A | -3.54
G69U C104A | -0.638
G69U C104G | -4.34
U67A C70G C89G C123G | -6.22
G63A U78C A91G A121G | 0.408
A68G C73G C82U | -5.21
G63A U112A G122C | -1.55
G69U C94U C101A | -0.271
G69C C123A | -0.685
G69C U87A C123G | -0.694
G63A A90U | -3.43
G63A C82A | -2.53
C64A A66C C104A | -6.61
A66C A74C A111C | -2.24
G69A C82U U112G | -4.1
G63C U132A | -0.875

Variant | polymerase ribozyme fitness (log ratio)
A66C U133A | -0.805
C64U G113A | -1.32
G63U U87G | -0.803
G63U U87A | -1.45
G69A C101A U132A | -3.65
C64U U130C | -0.0426
C64U C89G A91U C97U C115U | -2.63
G63A A119G G127U | 0.478
C64U C82G C88U U131G | -0.778
G63A C102U U133G | -2.77
G63C C115G | -2.43
G69C G122A | -1.53
G63C G110U | -2.57
C64U C79U C85A A105G | -5.05
C64U C124G | 1.78
A66U C115A | -1.05
C70A A84U | -0.795
G69C C97A | -6.49
G69A U81A C124A | -1.99
C64A G113C A118G | -6.38
G69C G113U | -4.51

Variant | polymerase ribozyme fitness (log ratio)
G69U C115G | -0.0637
G69U U78C A84G G122A G128A | -3.23
G63C U81G | -4.28
G69C U78C U106A | -2.46
G63U A74U | -4.43
G63A A103U | -6.64
G63A U78C A95G | -0.717
G69C C73A | -1.18
G69A U106C C114A G120C | -3.12
G69U A91C C114A C124U U126C | -2.19
G69A C73A C82A G120A G128A | -3.86
A66G C124G | 1.19
G63U G120C | 0.0622
C64U A66U | -0.148
G63U C114A U133A | -3.35
A66U C73G | -1.75
C64U C89U G117C | -4.79
G69C G135A | -1.9
G69C G135U | -2.29
G69U U132A | 0.176
